From article PMC6101539 (Nucleic Acids Research, 2018)
Positions count from the first letter of the chain named. Where two headings read alike, the source gives them in different places.

T1: RarA (Bacillus subtilis, UniProt O34528 1-421)
T1 sequence: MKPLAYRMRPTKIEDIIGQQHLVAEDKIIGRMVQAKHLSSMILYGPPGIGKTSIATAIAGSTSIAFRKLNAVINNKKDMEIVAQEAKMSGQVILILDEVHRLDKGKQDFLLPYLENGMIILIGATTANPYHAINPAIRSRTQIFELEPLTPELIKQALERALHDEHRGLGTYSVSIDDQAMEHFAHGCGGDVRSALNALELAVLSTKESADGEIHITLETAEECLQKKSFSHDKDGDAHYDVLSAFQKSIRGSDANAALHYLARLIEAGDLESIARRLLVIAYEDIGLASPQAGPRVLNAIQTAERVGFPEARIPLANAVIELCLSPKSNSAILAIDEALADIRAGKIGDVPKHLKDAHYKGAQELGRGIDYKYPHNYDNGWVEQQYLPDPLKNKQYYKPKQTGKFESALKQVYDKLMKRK

T2: SsbB (Bacillus subtilis, UniProt C0SPB6 1-113)
T2 sequence: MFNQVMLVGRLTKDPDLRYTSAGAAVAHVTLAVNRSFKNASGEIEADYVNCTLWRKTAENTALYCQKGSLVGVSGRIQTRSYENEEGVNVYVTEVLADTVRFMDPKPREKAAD

T3: RarA;SsbA (Bacillus subtilis;Bacillus subtilis, UniProt O34528;P37455 1-421;1-172, |)
T3 sequence 1: T1 sequence
T3 sequence 2: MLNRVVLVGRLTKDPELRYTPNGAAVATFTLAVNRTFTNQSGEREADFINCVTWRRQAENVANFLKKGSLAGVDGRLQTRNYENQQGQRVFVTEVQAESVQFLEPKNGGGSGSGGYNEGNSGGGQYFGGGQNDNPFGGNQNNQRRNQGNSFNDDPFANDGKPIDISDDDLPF

T4: RarA K51A;SsbA (Bacillus subtilis;Bacillus subtilis, UniProt O34528;P37455 1-421;1-172, K51A|)
T4 sequence 1: T1 sequence with K51A
T4 sequence 2: T3 sequence 2

T5: RarA;SsbBA chimera (SsbB*) (Bacillus subtilis;Bacillus subtilis, UniProt O34528;C0SPB6 1-421;1-113+P37455:164-172, |internal_change)
T5 sequence 1: T1 sequence
T5 sequence 2: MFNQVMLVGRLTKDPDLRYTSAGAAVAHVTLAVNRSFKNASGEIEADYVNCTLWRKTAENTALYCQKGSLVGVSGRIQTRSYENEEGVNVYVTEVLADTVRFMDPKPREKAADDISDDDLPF

T6: SsbA (Bacillus subtilis, UniProt P37455 1-172)
T6 sequence: T3 sequence 2

T7: PriA (Bacillus subtilis, UniProt P94461 1-805)
T7 sequence: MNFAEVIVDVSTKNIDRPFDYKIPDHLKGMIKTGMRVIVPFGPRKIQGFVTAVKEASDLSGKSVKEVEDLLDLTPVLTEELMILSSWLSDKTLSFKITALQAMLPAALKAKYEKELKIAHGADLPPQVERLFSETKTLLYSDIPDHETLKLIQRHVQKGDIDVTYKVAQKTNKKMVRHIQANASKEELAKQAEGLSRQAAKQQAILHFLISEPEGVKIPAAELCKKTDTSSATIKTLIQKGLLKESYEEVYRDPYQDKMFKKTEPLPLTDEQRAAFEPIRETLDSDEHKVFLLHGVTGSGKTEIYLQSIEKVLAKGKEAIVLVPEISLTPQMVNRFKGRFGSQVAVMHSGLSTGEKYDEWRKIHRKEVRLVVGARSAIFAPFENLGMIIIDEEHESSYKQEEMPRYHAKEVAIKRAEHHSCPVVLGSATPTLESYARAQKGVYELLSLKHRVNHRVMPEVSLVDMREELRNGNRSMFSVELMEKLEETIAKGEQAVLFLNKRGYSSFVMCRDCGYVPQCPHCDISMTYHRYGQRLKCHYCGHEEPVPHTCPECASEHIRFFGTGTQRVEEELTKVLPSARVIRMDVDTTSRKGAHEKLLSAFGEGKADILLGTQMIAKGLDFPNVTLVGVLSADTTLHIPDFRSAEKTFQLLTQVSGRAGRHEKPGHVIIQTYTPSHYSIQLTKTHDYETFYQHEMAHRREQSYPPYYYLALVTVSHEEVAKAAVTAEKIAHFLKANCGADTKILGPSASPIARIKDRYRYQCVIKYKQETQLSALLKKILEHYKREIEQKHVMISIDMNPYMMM

T8: RarA;PriA (Bacillus subtilis;Bacillus subtilis, UniProt O34528;P94461 1-421;1-805, |)
T8 sequence 1: T1 sequence
T8 sequence 2: T7 sequence

T9: Bacillus subtilis RarA K51A (Walker A motif mutant) (B. subtilis, UniProt O34528 1-421, K51A)
T9 sequence (looked up): T1 sequence with K51A

T10: Bacillus subtilis RarA (replication associated recombination protein A) (B. subtilis, UniProt O34528 1-421)
T10 sequence (looked up): T1 sequence

B1: dsDNA (100U/100D) (dsDNA)
DNA 1: GGGCGAATTGGGCCCGACGTCGCATGCTCCTCTAGACTCGAGGAATTCGGTACCCCGGGTTCGAAATCGATAAGCTTACAGTCTCCATTTAAAGGACAAG
DNA 2: CTTGTCCTTTAAATGGAGACTGTAAGCTTATCGATTTCGAACCCGGGGTACCGAATTCCTCGAGTCTAGAGGAGCATGCGACGTCGGGCCCAATTCGCCC
B2: 91-nt ssDNA (F1) (ssDNA)
DNA: TATAAAAAAAGCCAAGCTTGCATGCCTGCAGGTCGACTCTAGAGGATCCCCGGGTACCGAGCTCGAATTCACTGGCCGTCGTTTTACAACG
B3: fork DNA (F1/F2) (dsDNA)
DNA 1: B2 DNA
DNA 2: AATTCGTTGTAAAACGACGGCCAGTGAATTCGAGCTCGGTACCCGCCAGCCACAGTCAGACACACACACACTACACACAAAAAAAAAAA
B4: replicated fork (F1/F2/F3) (dsDNA)
DNA 1: B2 DNA
DNA 2: B3 DNA 2
DNA 3: TTTTTTTTTTTGTGTGTAGTGTGTGTGTGTCTGACTGTGGCTGG
B5: Bacillus subtilis SsbA (single stranded binding protein A) (natural protein, B. subtilis, UniProt P37455 1-172, looked up)
chain: T3 sequence 2
B6: SsbBA chimera (SsbB with the last 9 terminal acidic residues of SsbA) (other, B. subtilis, UniProt C0SPB6 1-113, looked up)
chain: T5 sequence 2

Columns and labels:
RarA = target: T1, RarA; experiment: EMSA
SsbB = target: T2, SsbB; experiment: EMSA
RarA;SsbA = target: T3, RarA;SsbA; experiment: EMSA
RarA K51A;SsbA = target: T4, RarA K51A;SsbA; experiment: EMSA
[1] = target: T5, RarA;SsbBA chimera (SsbB*); experiment: EMSA
SsbA [2] = target: T6, SsbA; experiment: EMSA
SsbA [3] = target: T6, SsbA; experiment: EMSA; remark: listed apart in the source
PriA = target: T7, PriA; experiment: EMSA
RarA;PriA = target: T8, RarA;PriA; experiment: EMSA
[4] = target: T9, Bacillus subtilis RarA K51A (Walker A …); experiment: native gel or EMSA
[5] = target: T10, Bacillus subtilis RarA (replication …); experiment: native gel or EMSA

Row | binding result [5] | Binder | Kd (RarA) [nM] | binding result (RarA;SsbA) | also measured
1 | – | B1 | ~37 | – | –
2 | – | B2 | ~12 | binds | Kd (SsbB): ~6 nM; binding result (RarA K51A;SsbA): binds; binding result [1]: binds
3 | – | B3 | ~12 | binds | binding result (SsbA [2]): binds
4 | – | B4 | ~19 | binds | binding result (SsbA [3]): binds; Kd (PriA): ~3 nM; binding result (RarA;PriA): binds
5 | binds | B5 | – | – | binding result [4]: binds
6 | binds | B6 | – | – | –
